Reference: patent US20140302035A1 (MERRIMACK PHARMACEUTICALS, published 2014)

B1: Ab#6 (bispecific antibody, human IgG1, kappa)
heavy: QLQLQESGPGLVKPSETLSLTCTVSGGSISSSVYYWSWIRQPPGKGLEWIGVIYPSGNTYYSPSLKSRVTISVDTSKNQFSLKLSSVTAADTAVYYCARTIYDLFDIWGQGTMVTVSSASTKGPSVFPLAPSSKSTSGGTAALGCLVKDYFPEPVTVSWNSGALTSGVHTFPAVLQSSGLYSLSSVVTVPSSSLGTQTYICNVNHKPSNTKVDKKVEPKSCDKTHTCPSCPAPEFLGGPSVFLFPPKPKDTLMISRTPEVTCVVVDVSQEDPEVQFNWYVDGVEVHNAKTKPREEQFNSKYRVVSVLTVLHQDWLNGKEYKCKVSNKGLPSSIEKTISKAKGQPREPQVYTLPPSREEMTKNQVSLSCAVKGFYPSDIAVEWESNGQPENNYKTTPPVLDSDGSFFLVSKLTVDKSRWQQGNVFSCSVMHEALHNHYTQKSLSLSKSCDKTGGGGSGGGGSGGGGSGGGGSGGGGSGGGGSGGGGSGGGGSCPSCPAPEFLGGPSVFLFPPKPKDTLMISRTPEVTCVVVDVSQEDPEVQFNWYVDGVEVHNAKTKPREEQFNSDYRVVSVLTVLHQDWLNGKEYKCKVSNKGLPSSIEKTISKAKGQPREPQVYTLPPSREEMTKNQVSLWCLVKGFYPSDIAVEWESNGQPENNYKTTPPVLDSDGSFFLYSKLTVDKSRWQQGNVFSCSVMHEALHNHYTQKSLSLSGECGGGGSGGGGSDIVMTQSPLSLPVTPGEPASISCRSTKSLLHSDGITYLYWYLQKPGQSPQLLIYQLSNLASGVPDRFSSSGSGTDFTLKISRVEAEDEGVYYCAQNLEIPRTFGGGTKLEIKRTGGGGSGGGGSGGGGSGGGGSQVQLVQSGAEVKKPGESVKISCKASGYTFTNYGMNWVRQAPGQGLKWMGWINTYTGESTYADDFKGRFAFSLDTSASTAYLQLSSLRSEDTAVYFCARFAIKGDYWGQGTLVTVSS
light: DIQMTQSPSSVSASVGDRVTITCRASQGISSWLAWYQQKPGKAPKLLIYAASSLQSGVPSRFSGSGSGTDFTLTISSLQPEDFATYYCLQANSFPPTFGGGTKVEIKRTVAAPSVFIFPPSDEQLKSGTASVVCLLNNFYPREAKVQWKVDNALQSGNSQESVTEQDSKDSTYSLSSTLTLSKADYEKHKVYACEVTHQGLSSPVTKSFNRGEC
notes: Anti-c-Met Fab / tandem Fc / anti-EpCAM scFv TFcBA; also called Antibody #6
B2: Ab#8 (bispecific antibody, human IgG1, kappa)
heavy: QLQLQESGPGLVKPSETLSLTCTVSGGSISSSVYYWSWIRQPPGKGLEWIGVIYPSGNTYYSPSLKSRVTISVDTSKNQFSLKLSSVTAADTAVYYCARTIYDLFDIWGQGTMVTVSSASTKGPSVFPLAPSSKSTSGGTAALGCLVKDYFPEPVTVSWNSGALTSGVHTFPAVLQSSGLYSLSSVVTVPSSSLGTQTYICNVNHKPSNTKVDKKVEPKSCDKTHTCPSCPAPEFLGGPSVFLFPPKPKDTLMISRTPEVTCVVVDVSQEDPEVQFNWYVDGVEVHNAKTKPREEQFNSKYRVVSVLTVLHQDWLNGKEYKCKVSNKGLPSSIEKTISKAKGQPREPQVYTLPPSREEMTKNQVSLSCAVKGFYPSDIAVEWESNGQPENNYKTTPPVLDSDGSFFLVSKLTVDKSRWQQGNVFSCSVMHEALHNHYTQKSLSLSKSCDKTGGGGSGGGGSGGGGSGGGGSGGGGSGGGGSGGGGSGGGGSCPSCPAPEFLGGPSVFLFPPKPKDTLMISRTPEVTCVVVDVSQEDPEVQFNWYVDGVEVHNAKTKPREEQFNSDYRVVSVLTVLHQDWLNGKEYKCKVSNKGLPSSIEKTISKAKGQPREPQVYTLPPSREEMTKNQVSLWCLVKGFYPSDIAVEWESNGQPENNYKTTPPVLDSDGSFFLYSKLTVDKSRWQQGNVFSCSVMHEALHNHYTQKSLSLSGECGGGGSGGGGSQVQLVQSGAEVKKPGESVKISCKASGYTFTNYGMNWVRQAPGQGLKWMGWINTYTGESTYADDFKGRFAFSLDTSASTAYLQLSSLRSEDTAVYFCARFAIKGDYWGQGTLVTVSSASTGGGGSGGGGSGGGGSGGGGSDIVMTQSPLSLPVTPGEPASISCRSTKSLLHSDGITYLYWYLQKPGQSPQLLIYQMSNLASGVPDRFSSSGSGTDFTLKISRVEAEDEGVYYCAQNLEIPRTFGGGTKLEIKRT
light: DIQMTQSPSSVSASVGDRVTITCRASQGISSWLAWYQQKPGKAPKLLIYAASSLQSGVPSRFSGSGSGTDFTLTISSLQPEDFATYYCLQANSFPPTFGGGTKVEIKRTVAAPSVFIFPPSDEQLKSGTASVVCLLNNFYPREAKVQWKVDNALQSGNSQESVTEQDSKDSTYSLSSTLTLSKADYEKHKVYACEVTHQGLSSPVTKSFNRGEC
notes: Anti-c-Met Fab / tandem Fc / anti-EpCAM scFv TFcBA; also called Antibody #8
B3: Ab#11 (bispecific antibody, human IgG1, kappa)
heavy: QLQLQESGPGLVKPSETLSLTCTVSGGSISSSVYYWSWIRQPPGKGLEWIGVIYPSGNTYYSPSLKSRVTISVDTSKNQFSLKLSSVTAADTAVYYCARTIYDLFDIWGQGTMVTVSSASTKGPSVFPLAPSSKSTSGGTAALGCLVKDYFPEPVTVSWNSGALTSGVHTFPAVLQSSGLYSLSSVVTVPSSSLGTQTYICNVNHKPSNTKVDKKVEPKSCDKTHTCPSCPAPEFLGGPSVFLFPPKPKDTLMISRTPEVTCVVVDVSQEDPEVQFNWYVDGVEVHNAKTKPREEQFNSKYRVVSVLTVLHQDWLNGKEYKCKVSNKGLPSSIEKTISKAKGQPREPQVYTLPPSREEMTKNQVSLSCAVKGFYPSDIAVEWESNGQPENNYKTTPPVLDSDGSFFLVSKLTVDKSRWQQGNVFSCSVMHEALHNHYTQKSLSLSKSCDKTGGGGSGGGGSGGGGSGGGGSGGGGSGGGGSGGGGSGGGGSCPSCPAPEFLGGPSVFLFPPKPKDTLMISRTPEVTCVVVDVSQEDPEVQFNWYVDGVEVHNAKTKPREEQFNSDYRVVSVLTVLHQDWLNGKEYKCKVSNKGLPSSIEKTISKAKGQPREPQVYTLPPSREEMTKNQVSLWCLVKGFYPSDIAVEWESNGQPENNYKTTPPVLDSDGSFFLYSKLTVDKSRWQQGNVFSCSVMHEALHNHYTQKSLSLSGECGGGGSGGGGSDIVMTQSPSSLSASVGDKATITCRSTKSLLHSNGITYLYWYLQKPGKAPKLLIYQMSNLASGVPDRFSSSGSGTEFTLTISSVQPEDEGTYYCAQNLEIPRTFGQGTKLEIKRTGGGGSGGGGSGGGGSGGGGSGQVQLQQSGGGLVKPGESVKISCAASGYTFTNYGMNWVKQAPGKGLKWMGWINTYTGESTYADDFKGRFTFSLETSASAAYLQINSLRPEDTAVYFCARFAIKGDYWGQGTTVTVSS
light: DIQMTQSPSSVSASVGDRVTITCRASQGISSWLAWYQQKPGKAPKLLIYAASSLQSGVPSRFSGSGSGTDFTLTISSLQPEDFATYYCLQANSFPPTFGGGTKVEIKRTVAAPSVFIFPPSDEQLKSGTASVVCLLNNFYPREAKVQWKVDNALQSGNSQESVTEQDSKDSTYSLSSTLTLSKADYEKHKVYACEVTHQGLSSPVTKSFNRGEC
notes: Anti-c-Met Fab / tandem Fc / anti-EpCAM scFv TFcBA; also called Antibody #11
B4: Ab#9 (bispecific antibody, human IgG1, kappa)
heavy: QLQLQESGPGLVKPSETLSLTCTVSGGSISSSVYYWSWIRQPPGKGLEWIGVIYPSGNTYYSPSLKSRVTISVDTSKNQFSLKLSSVTAADTAVYYCARTIYDLFDIWGQGTMVTVSSASTKGPSVFPLAPSSKSTSGGTAALGCLVKDYFPEPVTVSWNSGALTSGVHTFPAVLQSSGLYSLSSVVTVPSSSLGTQTYICNVNHKPSNTKVDKKVEPKSCDKTHTCPSCPAPEFLGGPSVFLFPPKPKDTLMISRTPEVTCVVVDVSQEDPEVQFNWYVDGVEVHNAKTKPREEQFNSKYRVVSVLTVLHQDWLNGKEYKCKVSNKGLPSSIEKTISKAKGQPREPQVYTLPPSREEMTKNQVSLSCAVKGFYPSDIAVEWESNGQPENNYKTTPPVLDSDGSFFLVSKLTVDKSRWQQGNVFSCSVMHEALHNHYTQKSLSLSKSCDKTGGGGSGGGGSGGGGSGGGGSGGGGSGGGGSGGGGSGGGGSCPSCPAPEFLGGPSVFLFPPKPKDTLMISRTPEVTCVVVDVSQEDPEVQFNWYVDGVEVHNAKTKPREEQFNSDYRVVSVLTVLHQDWLNGKEYKCKVSNKGLPSSIEKTISKAKGQPREPQVYTLPPSREEMTKNQVSLWCLVKGFYPSDIAVEWESNGQPENNYKTTPPVLDSDGSFFLYSKLTVDKSRWQQGNVFSCSVMHEALHNHYTQKSLSLSGECGGGGSGGGGSQVQLQQSGGGLVKPGESVKISCAASGYTFTNYGMNWVKQAPGKGLKWMGWINTYTGESTYADDFKGRFTFSLETSASAAYLQINSLRPEDTAVYFCARFAIKGDYWGQGTTVTVSSASTGGGGSGGGGSGGGGSGGGGSGDIVMTQSPSSLSASVGDKATITCRSTKSLLHSNGITYLYWYLQKPGKAPKLLIYQMSNLASGVPDRFSSSGSGTEFTLTISSVQPEDEGTYYCAQNLEIPRTFGQGTKLEIK
light: DIQMTQSPSSVSASVGDRVTITCRASQGISSWLAWYQQKPGKAPKLLIYAASSLQSGVPSRFSGSGSGTDFTLTISSLQPEDFATYYCLQANSFPPTFGGGTKVEIKRTVAAPSVFIFPPSDEQLKSGTASVVCLLNNFYPREAKVQWKVDNALQSGNSQESVTEQDSKDSTYSLSSTLTLSKADYEKHKVYACEVTHQGLSSPVTKSFNRGEC
notes: Anti-c-Met Fab / tandem Fc / anti-EpCAM scFv TFcBA; also called Antibody #9
B5: Ab#10 (bispecific antibody, human IgG1, kappa)
heavy: QLQLQESGPGLVKPSETLSLTCTVSGGSISSSVYYWSWIRQPPGKGLEWIGVIYPSGNTYYSPSLKSRVTISVDTSKNQFSLKLSSVTAADTAVYYCARTIYDLFDIWGQGTMVTVSSASTKGPSVFPLAPSSKSTSGGTAALGCLVKDYFPEPVTVSWNSGALTSGVHTFPAVLQSSGLYSLSSVVTVPSSSLGTQTYICNVNHKPSNTKVDKKVEPKSCDKTHTCPSCPAPEFLGGPSVFLFPPKPKDTLMISRTPEVTCVVVDVSQEDPEVQFNWYVDGVEVHNAKTKPREEQFNSKYRVVSVLTVLHQDWLNGKEYKCKVSNKGLPSSIEKTISKAKGQPREPQVYTLPPSREEMTKNQVSLSCAVKGFYPSDIAVEWESNGQPENNYKTTPPVLDSDGSFFLVSKLTVDKSRWQQGNVFSCSVMHEALHNHYTQKSLSLSKSCDKTGGGGSGGGGSGGGGSGGGGSGGGGSGGGGSGGGGSGGGGSCPSCPAPEFLGGPSVFLFPPKPKDTLMISRTPEVTCVVVDVSQEDPEVQFNWYVDGVEVHNAKTKPREEQFNSDYRVVSVLTVLHQDWLNGKEYKCKVSNKGLPSSIEKTISKAKGQPREPQVYTLPPSREEMTKNQVSLWCLVKGFYPSDIAVEWESNGQPENNYKTTPPVLDSDGSFFLYSKLTVDKSRWQQGNVFSCSVMHEALHNHYTQKSLSLSGECGGGGSGGGGSQVQLQQSGGGLVKPGESVKISCAASGYTFTNYGMNWVKQAPGKGLKWMGWINTYTGESTYADDFKGRFTFSLETSASAAYLQINSLRPEDTAVYFCARFAIKGDYWGQGTTVTVSSASTGGGGSGGGGSGGGGSGGGGSGDIVMTQSPSSLSASVGDKATITCRSTKSLLHSDGITYLYWYLQKPGKAPKLLIYQLSNLASGVPDRFSSSGSGTEFTLTISSVQPEDEGTYYCAQNLEIPRTFGQGTKLEIK
light: DIQMTQSPSSVSASVGDRVTITCRASQGISSWLAWYQQKPGKAPKLLIYAASSLQSGVPSRFSGSGSGTDFTLTISSLQPEDFATYYCLQANSFPPTFGGGTKVEIKRTVAAPSVFIFPPSDEQLKSGTASVVCLLNNFYPREAKVQWKVDNALQSGNSQESVTEQDSKDSTYSLSSTLTLSKADYEKHKVYACEVTHQGLSSPVTKSFNRGEC
notes: Anti-c-Met Fab / tandem Fc / anti-EpCAM scFv TFcBA; also called Antibody #10

Molecular target: T1, Human EpCAM-Fc-his tagged (human)
T1 construct: also called Recombinant polyhistidine-tagged EpCAM-Fc; recombinant EpCAM
T1 sequence (chain, as listed by the source): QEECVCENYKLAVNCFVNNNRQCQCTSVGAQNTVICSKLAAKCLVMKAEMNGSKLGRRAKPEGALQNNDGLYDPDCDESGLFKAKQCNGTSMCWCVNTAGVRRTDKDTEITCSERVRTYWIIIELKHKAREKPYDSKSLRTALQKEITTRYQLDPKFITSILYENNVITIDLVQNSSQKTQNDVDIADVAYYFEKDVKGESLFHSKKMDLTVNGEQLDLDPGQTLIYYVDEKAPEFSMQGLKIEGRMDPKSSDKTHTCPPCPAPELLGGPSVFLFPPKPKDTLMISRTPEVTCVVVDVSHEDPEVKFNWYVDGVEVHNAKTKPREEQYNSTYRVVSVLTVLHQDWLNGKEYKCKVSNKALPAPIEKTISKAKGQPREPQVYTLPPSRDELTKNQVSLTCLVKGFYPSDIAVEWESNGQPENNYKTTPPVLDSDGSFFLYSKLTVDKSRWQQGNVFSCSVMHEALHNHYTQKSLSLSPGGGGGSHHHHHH
Assay: BLI (ForteBio Octet), antibody loaded on Protein A tips, recombinant polyhistidine-tagged EpCAM-Fc in solution, 1:1 model
Experimental: For Octet analysis, all reagents and samples are brought to room temperature. Protein A sensor tips (ForteBio, #18-5010) are hydrated for 10 minutes in 1×PBS. Assay steps include: 1-2 minutes of equilibration in 1×PBS, 4 minutes of antibody loading (concentration of 50 μg/ml in 1×PBS), 1-2 minutes of baseline stabilization, 4 minutes of antibody:antigen association, and 4 minutes of antibody:antigen dissociation. 1×PBS is used as the matrix throughout. Data are analyzed with Octet Data Analysis software, processed, and fit to a 1:1 binding model to determine kinetic parameters (Kd, kₒₙ and kdiss).
Table A-2 describes approximate EpCAM binding affinity and dissociation rate as determined for Ab#1, Ab#2, Ab#3, Ab#4, Ab#5, Ab#6, Ab#7, Ab#8, Ab#9, Ab#10, Ab#11, Ab#12, and Ab#13.

Binder | Kd | koff
B1 | 11.2 nM | 0.00122 s⁻¹
B2 | 16.7 nM | 0.00098 s⁻¹
B3 | 4.57 nM | 0.000409 s⁻¹
B4 | 10 nM | 0.00043 s⁻¹
B5 | 26.2 nM | 0.00211 s⁻¹
